Test results from US20240254244A1 (QYUNS THERAPEUTICS, published 2024).

T1: Human IFNAR1 on cells (HEK Blue IFNα/β cells, Daudi cells, human whole blood) (human, UniProt P17181 28-557)
T1 sequence (looked up): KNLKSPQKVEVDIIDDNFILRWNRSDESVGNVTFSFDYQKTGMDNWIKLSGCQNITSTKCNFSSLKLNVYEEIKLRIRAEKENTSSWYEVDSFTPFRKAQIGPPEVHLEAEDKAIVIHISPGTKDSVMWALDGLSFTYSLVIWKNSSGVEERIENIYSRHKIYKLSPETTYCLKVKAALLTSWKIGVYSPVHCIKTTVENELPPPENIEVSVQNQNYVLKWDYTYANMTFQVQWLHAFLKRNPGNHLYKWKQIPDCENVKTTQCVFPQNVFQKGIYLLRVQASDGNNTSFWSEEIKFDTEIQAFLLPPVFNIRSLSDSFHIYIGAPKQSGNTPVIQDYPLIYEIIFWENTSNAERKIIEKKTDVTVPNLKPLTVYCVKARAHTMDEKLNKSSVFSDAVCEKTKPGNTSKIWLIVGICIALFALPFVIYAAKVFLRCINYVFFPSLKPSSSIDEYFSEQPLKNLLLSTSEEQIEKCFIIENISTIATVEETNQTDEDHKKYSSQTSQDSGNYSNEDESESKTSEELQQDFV

T2: Human interferon alpha receptor 1 (IFNAR1) (human, UniProt P17181 28-436)
T2 construct: Soluble antigen flowed over captured antibody in Biacore; also called human IFNAR1; Human Interferon alpha/beta Receptor 1
T2 sequence: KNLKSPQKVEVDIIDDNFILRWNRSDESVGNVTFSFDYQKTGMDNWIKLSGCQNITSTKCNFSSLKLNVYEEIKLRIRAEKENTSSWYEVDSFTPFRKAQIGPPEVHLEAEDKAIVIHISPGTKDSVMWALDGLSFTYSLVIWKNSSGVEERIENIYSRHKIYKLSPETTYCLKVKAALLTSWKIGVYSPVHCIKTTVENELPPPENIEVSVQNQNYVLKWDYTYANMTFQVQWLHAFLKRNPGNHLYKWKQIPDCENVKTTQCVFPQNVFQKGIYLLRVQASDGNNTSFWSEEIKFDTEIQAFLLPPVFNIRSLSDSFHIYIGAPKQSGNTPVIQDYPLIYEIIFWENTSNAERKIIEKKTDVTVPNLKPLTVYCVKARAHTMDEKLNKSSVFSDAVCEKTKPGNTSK


Key:
[1] = biological target: T1, Human IFNAR1 on cells (HEK Blue IFNα/β …); assay: cell-based or functional assay
[2] = biological target: T2, Human interferon alpha receptor 1 …; assay: SPR, Biacore T200, antibody captured on Protein A chip, antigen as analyte, 25 C, 1:1 model, mean of three
Protocol: BiacoreT200 was used to detect the affinity between QX006N (HZD1203-45-IgG4.1) and human IFNAR1. All processes were performed at 25° C. A commercial Protein A chip was used to immobilize an appropriate amount of antibody through the capture method so that Rmax was around 50 RU and the capture flow rate was 10 μl/min. The antigen was gradient diluted, the flow rate of the instrument was switched to 30 μl/min, flowed through the reference channel and the fixed antibody channel in order of concentration from low to high, and flowed through buffer as the negative control. The chip was regenerated with pH1.5 glycine after each binding and dissociation was completed. The built-in analysis software of the instrument was used to select the 1:1 binding model in the Kinetics option for fitting, and the antibody's binding rate constant kₐ, dissociation rate constant kd, and dissociation equilibrium constant KD values were calculated.
The data in the table were: each sample was tested three times and the average value was calculated.

| EC50 of neutralising the effect of interferon (0.8 ng/ml IFNα.2b) on Daudi cell proliferation (CellTiter-Glo) [1] [mg/L] | IC50 of inhibiting interferon (0.2 ng/ml IFNα.2b) induced STAT1/2 phosphorylation in HEK Blue IFNα/β reporter cells [1] [mg/L] | IC50 of inhibiting interferon (8 ng/ml IFNα.2b with 40 ng/ml TNF-α) induced release of CXCL10/IP10 from human whole blood [1] [mg/L] | Kd [2] [nM] | koff [2] [s⁻¹] | kon [2] [M⁻¹ s⁻¹] | Binder |
| --- | --- | --- | --- | --- | --- | --- |
| 0.0317 | 0.00443 | 0.562 | – | – | – | Anifrolumab (antibody, V domains shown) VH: EVQLVQSGAEVKKPGESLKISCKGSGYIFTNYWIAWVRQMPGKGLESMGIIYPGDSDIRYSPSFQGQVTISADKSITTAYLQWSSLKASDTAMYYCARHDIEGFDYWGRGTLVTVSS VL: EIVLTQSPGTLSLSPGERATLSCRASQSVSSSFFAWYQQKPGQAPRLLIYGASSRATGIPDRLSGSGSGTDFTLTITRLEPEDFAVYYCQQYDSSAITFGQGTRLEIKR |
| 0.0299 | 0.00523 | 0.698 | 0.108 | 3.76e-05 | 347000 | QX006N (HZD1203-45-IgG4.1) (antibody, V domains shown, Humanized rabbit antibody (clone 1203#) with human IgG4 constant region, expressed in ExpiCHO-S cells; also called anti-human interferon alpha receptor 1 (IFNAR1) monoclonal antibody of the present application) VH: EVQLVESGGGLVQPGGSLRLSCAASGFSLSSYYMTWVRQAPGKGLEWVSVINVYGGTYYASWAKGRFTISRDNSKNTLYLQMNSLRAEDTAVYYCAREDVAVYMAIDLWGQGTLVTVSS VL: AIQMTQSPSSLSASVGDRVTITCQASQSISNQLSWYQQKPGKAPKLLIYDASSLASGVPSRFSGSRSGTKFTLTISSLQPEDFATYYCLGIYGDGADDGIAFGGGTKVEIKR |
